From patent CN115724950A (YIDAO BIOTECHNOLOGY SUZHOU CO LTD, dated 2023) come the findings set out here.

Bounds are passed on as bounds.

In one assay the target is T1, HPV6-GFP假病毒 (Human papillomavirus type 6, UniProt P69899 1-500).
T1 sequence: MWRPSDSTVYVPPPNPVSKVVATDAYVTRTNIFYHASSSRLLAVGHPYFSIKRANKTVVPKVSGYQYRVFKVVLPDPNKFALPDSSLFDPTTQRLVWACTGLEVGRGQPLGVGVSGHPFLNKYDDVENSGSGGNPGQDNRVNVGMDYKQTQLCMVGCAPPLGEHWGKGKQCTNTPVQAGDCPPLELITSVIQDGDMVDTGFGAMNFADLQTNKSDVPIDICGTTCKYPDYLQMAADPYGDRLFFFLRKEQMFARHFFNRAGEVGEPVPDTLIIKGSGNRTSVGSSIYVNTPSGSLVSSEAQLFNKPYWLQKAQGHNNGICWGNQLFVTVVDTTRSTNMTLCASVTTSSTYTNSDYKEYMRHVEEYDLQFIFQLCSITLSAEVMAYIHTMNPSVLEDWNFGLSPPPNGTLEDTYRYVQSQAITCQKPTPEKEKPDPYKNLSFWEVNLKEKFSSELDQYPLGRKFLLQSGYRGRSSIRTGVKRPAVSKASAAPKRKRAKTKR
Put plainly: cell-based or functional assay.

The target in another assay is T2, HPV 18 抗原 (Human papillomavirus type 18, UniProt P06794 62-568).
T2 sequence: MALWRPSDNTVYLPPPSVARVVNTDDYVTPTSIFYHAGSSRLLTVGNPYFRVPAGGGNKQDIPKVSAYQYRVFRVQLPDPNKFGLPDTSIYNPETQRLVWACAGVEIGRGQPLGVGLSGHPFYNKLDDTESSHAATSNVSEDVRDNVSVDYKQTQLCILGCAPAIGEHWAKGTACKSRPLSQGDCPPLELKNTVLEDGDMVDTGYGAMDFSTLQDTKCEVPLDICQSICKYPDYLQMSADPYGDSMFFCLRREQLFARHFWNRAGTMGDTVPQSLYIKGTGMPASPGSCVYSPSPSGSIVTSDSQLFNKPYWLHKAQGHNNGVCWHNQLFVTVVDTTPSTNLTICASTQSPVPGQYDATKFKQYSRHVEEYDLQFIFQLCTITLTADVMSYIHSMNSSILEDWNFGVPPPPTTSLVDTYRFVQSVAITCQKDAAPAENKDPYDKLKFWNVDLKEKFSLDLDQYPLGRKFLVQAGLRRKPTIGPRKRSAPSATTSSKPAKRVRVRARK
Put plainly: indirect ELISA, antigen coated at 1 μg/ml, supernatant diluted 20-fold.

For the next assay, the target named is T3, HPV 16 抗原 (Human papillomavirus type 16, UniProt P03101 1-505).
T3 sequence: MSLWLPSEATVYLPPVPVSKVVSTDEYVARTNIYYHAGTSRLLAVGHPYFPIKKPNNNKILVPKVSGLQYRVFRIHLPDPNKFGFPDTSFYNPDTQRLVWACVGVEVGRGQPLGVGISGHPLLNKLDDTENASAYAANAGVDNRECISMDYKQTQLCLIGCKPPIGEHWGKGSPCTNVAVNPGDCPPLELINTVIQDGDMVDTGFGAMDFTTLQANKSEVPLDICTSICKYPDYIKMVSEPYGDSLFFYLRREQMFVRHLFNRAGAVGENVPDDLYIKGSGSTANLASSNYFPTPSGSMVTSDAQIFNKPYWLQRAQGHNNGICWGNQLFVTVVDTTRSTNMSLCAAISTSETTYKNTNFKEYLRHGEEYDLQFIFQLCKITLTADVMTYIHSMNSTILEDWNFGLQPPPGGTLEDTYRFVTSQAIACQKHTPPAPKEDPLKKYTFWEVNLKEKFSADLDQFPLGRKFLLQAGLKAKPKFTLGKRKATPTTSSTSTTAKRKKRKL
Described as above.

For a further assay, the target named is T4, HPV31 抗原 (Human papillomavirus type 31, UniProt P17388 1-504).
T4 sequence: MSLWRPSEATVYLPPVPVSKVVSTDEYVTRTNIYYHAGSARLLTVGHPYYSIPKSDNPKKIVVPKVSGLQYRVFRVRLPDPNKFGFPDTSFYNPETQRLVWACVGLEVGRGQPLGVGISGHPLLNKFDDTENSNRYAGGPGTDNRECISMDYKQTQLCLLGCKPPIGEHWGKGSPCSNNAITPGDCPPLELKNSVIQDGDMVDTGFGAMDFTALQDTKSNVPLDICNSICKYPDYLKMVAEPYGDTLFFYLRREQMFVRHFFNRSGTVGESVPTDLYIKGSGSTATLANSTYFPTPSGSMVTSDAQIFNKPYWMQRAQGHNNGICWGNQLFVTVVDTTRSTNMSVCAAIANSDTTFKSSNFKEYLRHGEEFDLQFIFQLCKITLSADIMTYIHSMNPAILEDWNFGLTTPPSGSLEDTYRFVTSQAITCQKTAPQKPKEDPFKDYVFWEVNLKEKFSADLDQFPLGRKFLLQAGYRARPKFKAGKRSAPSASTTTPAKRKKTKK
The assay is described as above.

The next assay concerns the target T5, HPV 33 抗原 (Human papillomavirus type 33, UniProt P06416 1-499).
T5 sequence: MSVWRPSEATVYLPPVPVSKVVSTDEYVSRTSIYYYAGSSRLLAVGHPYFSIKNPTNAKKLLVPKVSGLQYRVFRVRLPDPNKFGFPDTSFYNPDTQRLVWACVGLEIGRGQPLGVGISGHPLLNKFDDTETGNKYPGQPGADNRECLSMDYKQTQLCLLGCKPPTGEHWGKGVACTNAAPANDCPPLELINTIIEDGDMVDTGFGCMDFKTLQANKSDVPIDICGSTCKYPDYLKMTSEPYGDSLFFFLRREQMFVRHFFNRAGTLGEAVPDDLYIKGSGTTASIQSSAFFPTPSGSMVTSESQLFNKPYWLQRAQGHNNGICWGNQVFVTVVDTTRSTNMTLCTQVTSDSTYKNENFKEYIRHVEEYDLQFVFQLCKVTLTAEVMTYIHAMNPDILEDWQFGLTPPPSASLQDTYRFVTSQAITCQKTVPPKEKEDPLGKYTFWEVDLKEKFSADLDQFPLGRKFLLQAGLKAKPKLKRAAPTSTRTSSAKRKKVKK
Described as above.

In a further assay the target is T6, HPV 58 抗原 (Human papillomavirus type 58, UniProt P26535 27-524).
T6 sequence: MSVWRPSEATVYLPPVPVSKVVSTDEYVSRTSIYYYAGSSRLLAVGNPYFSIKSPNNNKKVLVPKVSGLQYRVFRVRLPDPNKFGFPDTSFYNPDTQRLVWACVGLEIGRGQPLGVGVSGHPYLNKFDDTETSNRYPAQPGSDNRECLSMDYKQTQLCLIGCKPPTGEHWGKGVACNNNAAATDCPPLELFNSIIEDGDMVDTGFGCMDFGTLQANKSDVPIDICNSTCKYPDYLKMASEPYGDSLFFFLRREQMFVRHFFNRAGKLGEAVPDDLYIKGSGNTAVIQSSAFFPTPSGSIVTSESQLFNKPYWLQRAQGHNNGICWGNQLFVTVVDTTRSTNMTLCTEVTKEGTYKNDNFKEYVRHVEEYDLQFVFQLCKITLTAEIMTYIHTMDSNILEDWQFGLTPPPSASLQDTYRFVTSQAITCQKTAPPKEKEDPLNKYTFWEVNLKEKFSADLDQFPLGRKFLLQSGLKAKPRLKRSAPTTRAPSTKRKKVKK
Described as above.

Another assay has as its target T7, HPV11 抗原 (Human papillomavirus type 11, UniProt P04012 1-501).
T7 sequence: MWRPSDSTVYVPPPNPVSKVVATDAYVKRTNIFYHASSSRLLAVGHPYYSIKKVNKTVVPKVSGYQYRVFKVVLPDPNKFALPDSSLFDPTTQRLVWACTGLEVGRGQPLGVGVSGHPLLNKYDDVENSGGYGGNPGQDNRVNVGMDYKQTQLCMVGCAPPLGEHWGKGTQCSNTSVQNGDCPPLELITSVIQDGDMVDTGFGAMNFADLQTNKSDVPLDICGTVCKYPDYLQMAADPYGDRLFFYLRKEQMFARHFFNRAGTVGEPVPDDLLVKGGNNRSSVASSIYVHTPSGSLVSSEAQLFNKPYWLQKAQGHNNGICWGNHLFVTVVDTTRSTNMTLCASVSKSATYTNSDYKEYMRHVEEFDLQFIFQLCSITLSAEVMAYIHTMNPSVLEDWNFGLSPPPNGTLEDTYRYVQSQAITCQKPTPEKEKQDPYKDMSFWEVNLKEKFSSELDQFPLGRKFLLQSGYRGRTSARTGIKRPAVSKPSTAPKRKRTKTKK
Described as above.

A further assay has as its target T8, HPV 45 抗原 (Human papillomavirus type 45, UniProt P36741 27-539).
T8 sequence: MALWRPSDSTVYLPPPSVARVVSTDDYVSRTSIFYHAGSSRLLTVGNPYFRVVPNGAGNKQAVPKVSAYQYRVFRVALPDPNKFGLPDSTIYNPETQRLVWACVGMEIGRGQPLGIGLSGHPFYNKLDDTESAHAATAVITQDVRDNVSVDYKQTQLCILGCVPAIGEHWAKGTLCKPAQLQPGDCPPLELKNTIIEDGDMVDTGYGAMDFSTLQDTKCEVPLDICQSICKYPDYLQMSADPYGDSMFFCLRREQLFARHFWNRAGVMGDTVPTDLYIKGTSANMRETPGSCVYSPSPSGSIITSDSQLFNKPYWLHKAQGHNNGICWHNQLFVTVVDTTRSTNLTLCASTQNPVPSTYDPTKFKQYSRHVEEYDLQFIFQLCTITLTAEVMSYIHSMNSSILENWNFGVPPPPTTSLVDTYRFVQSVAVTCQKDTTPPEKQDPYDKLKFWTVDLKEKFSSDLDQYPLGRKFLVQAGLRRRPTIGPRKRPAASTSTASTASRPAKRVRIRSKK
Described as above.

B1: 6H1 鼠源单克隆抗体 (杂交瘤 CGMCC No.45134) (antibody, V domains shown)
VH: EVQLQQSGPEVVKTGASVKISCKASGYSFTGYYMHWVKQSHGKSLEWIGYISCYNGATSYNQKFKGKATFTLDTSSSTAYMQFNSLTSEDSAVYYCAREDEYDGAYYLDYWGQGTTLTVSS
VL: DIVMTQSQKFMSTSVGDRVSVTCKASQNVGTNVAWYQQKPGQSPKTLIYSASYRYSGVPDRFTGSGSGTDFTLTISNVQSEDLAEYFCQQYFRYPLTFGAGTKLELK
notes: Tested as hybridoma supernatant (1.3, 1.4) and as protein G purified ascites antibody (1.6, 3.1); also called 第二单克隆抗体; 6H1 Lot#:2021081604
As to B1, the “假病毒中和实验 (HPV6-GFP假病毒, 293FT细胞, 荧光斑点数)” value with HPV6-GFP假病毒 was ≥ 5120 fold dilution of supernatant. Further, the “假病毒中和实验, 中和活性” value with HPV6-GFP假病毒 is 20500 fold dilution (titre). In addition, the binding result with HPV 18 抗原, in the assay with HPV 16 抗原, in the assay with HPV31 抗原, in the assay with HPV 33 抗原, in the assay with HPV 58 抗原 and with HPV11 抗原 was “no binding” each time. For the same molecule, in the assay with HPV 45 抗原, the binding result is “no binding”.

B2: 1G11 鼠源单克隆抗体 (杂交瘤 CGMCC No.45133) (antibody, V domains shown)
VH: EVKLVESGGGLVKPGGSLKLSCAASGVTFSSYAMSWVRQTPEKRLEWVASITRGGSTYYPDSVKGRFTISRDNARNILYLQMSSLRSEDTAMYYCAREGEDYYGSSYVDYWGQGTTLTVSS
VL: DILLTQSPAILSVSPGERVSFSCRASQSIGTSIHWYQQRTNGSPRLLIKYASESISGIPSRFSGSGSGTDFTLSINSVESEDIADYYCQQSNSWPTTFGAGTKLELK
notes: Tested as hybridoma supernatant (1.3, 1.4) and as protein G purified ascites antibody (1.6, 3.1); also called 第一单克隆抗体; 1G11 Lot#:2021081603
For the molecule B2, the “假病毒中和实验 (HPV6-GFP假病毒, 293FT细胞, 荧光斑点数)” value with HPV6-GFP假病毒 was ≥ 5120 fold dilution of supernatant. In the assay with HPV6-GFP假病毒, the “假病毒中和实验, 中和活性” value was 20500 fold dilution (titre). The binding result in the assay with HPV 18 抗原, with HPV 16 抗原, in the assay with HPV31 抗原, in the assay with HPV 33 抗原, with HPV 58 抗原 and with HPV11 抗原 was “no binding” in each case. In addition, the binding result with HPV 45 抗原 is “no binding”.
